Source: the supplement of paper PMC10126150
± gives the standard deviation of the averaged measurements.

System: ATP
Test: switch fluorescence ratio, 500 uM ATP over buffer (Cy3 cluster intensity, sum of 5 cycles each) (fold (ratio)); higher = stronger signal-on switching upon ATP binding; sequences stand for … in TCGTCGGCAGCGTCAGATGTGTATAAGAGACAGTTTTTTTTTTTTTTTTTTTTTTTTT…TC
Conditions: aptamer strand: ATP DNA aptamer (quencher-CACCTGGGGGAGTATTGCGGAGGAAGG + anchor), 100 nM annealed; ATP concentration: 500 uM
In short: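 For every switch-domain sequence, the fluorescence ratio is the mean of per-cluster values, each being summed target-cycle Cy3 intensity over summed buffer-cycle Cy3 intensity. Clusters outside 100-1000 RFU were excluded. On a modified Illumina MiSeq flow-cell, the Cy3-labelled switching-strand clusters were annealed to 100 nM quencher-labelled ATP aptamer, imaged in selection buffer and then after 15 min with 500 uM ATP at 22 °C. Five such cycles were run, with NaOH stripping and re-annealing between them.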
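Also: ATP exposure 15 min at 22 °C before imaging.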

| Sequence | switch fluorescence ratio |
| --- | --- |
| AGTGTACCCA | 1.077 ± 0.01 |
| TGGCTTAGGA | 0.979 ± 0.012 |
| AAATGGCCAC | 1.01 ± 0.035 |
| TATAAAAGAC | 1.018 ± 0.01 |
| GGAACCCGTG | 0.997 ± 0.048 |
| GGAGGGGAGG | 0.991 ± 0.029 |
| GGGTGAGGGT | 0.993 ± 0.015 |
| TCAATGTTTG | 1.008 ± 0.0069 |
| AGTTGCGTCC | 1.01 ± 0.026 |
| GGTCTATCGT | 1 ± 0.039 |
| GTTCTCAGTG | 1.01 ± 0.03 |
| CAGGGTTGGC | 1.03 ± 0.012 |
| AAGGGTAGGA | 1 ± 0.013 |
| GGCTGCAATG | 1.39 ± 0.069 |
| GTTTTATTAG | 0.951 ± 0.032 |
| TGGGCAGGGC | 1.04 ± 0.058 |
| AATTTGTACC | 0.989 ± 0.013 |
| AATGCGTGCG | 1.04 ± 0.023 |
| TATTTGGACT | 1.04 ± 0.046 |
| GGTGCAGCTG | 0.981 ± 0.016 |
| CACTAGCTCG | 1.02 ± 0.021 |
| TATCGAATTA | 0.987 ± 0.017 |
| ATTGAGCAAA | 1.11 ± 0.056 |
| GGGAAATCAT | 0.997 ± 0.015 |
| TTAGATGTCC | 0.9822 ± 0.0075 |

| Sequence | switch fluorescence ratio |
| --- | --- |
| GGTGAGCTAG | 0.9866 ± 0.0034 |
| TATACTCAGC | 1.03 ± 0.014 |
| ATAATTAGTA | 0.9455 ± 0.0079 |
| TTTGCTATAT | 1.18 ± 0.33 |
| TTACGCTACT | 1.802 ± 0.0047 |
| TATTGAGAGA | 1.02 ± 0.053 |
| CGGCAAGTGG | 1.05 ± 0.031 |
| CTGGTAGGGA | 1.06 ± 0.044 |
| TATAAATGAT | 1.06 ± 0.047 |
| AAATGCTATA | 1.01 ± 0.022 |
| GGGAAATAAA | 0.988 ± 0.013 |
| GGGTACCGAC | 1.08 ± 0.036 |
| GCGTTTAGAA | 0.987 ± 0.036 |
| GACCTTGGGA | 0.992 ± 0.039 |
| TGTGGGTTGG | 0.956 ± 0.018 |
| GGGTTTAGGG | 1 ± 0.045 |
| ATCGGATTAT | 0.969 ± 0.047 |
| TTTTTAAGGG | 0.996 ± 0.032 |
| ATAACCGCGG | 0.994 ± 0.025 |
| ACTCTAGTAC | 1.31 ± 0.034 |
| CCGAGTAGAG | 1.4 ± 0.067 |
| GGATGGTGGG | 1.01 ± 0.042 |
| TATTCGAGGC | 1.06 ± 0.052 |
| AATGATATCG | 1.03 ± 0.013 |
| TAGGGGATGC | 1 ± 0.015 |

| Sequence | switch fluorescence ratio |
| --- | --- |
| TATTTTTCAT | 1.01 ± 0.052 |
| GCCTGGGGAA | 0.9844 ± 0.0087 |
| AGGAGAATGT | 1.02 ± 0.011 |
| CAGTAAAAGG | 1.01 ± 0.028 |
| ATGGTTGCAG | 0.9553 ± 0.004 |
| GAAGGGTGCG | 1.02 ± 0.034 |
| GTGCCATGTT | 0.9816 ± 0.0083 |
| CATATAGGGT | 0.976 ± 0.038 |
| GAGTGGAATA | 1.002 ± 0.0083 |
| ACTTGTAGGC | 1.01 ± 0.05 |
| TTGTCTAATT | 1.007 ± 0.0081 |
| GCTGGGCCGA | 1.01 ± 0.036 |
| TAGGGGGGCG | 1.01 ± 0.085 |
| TCGGGAGTAT | 1.04 ± 0.03 |
| TCGTTTTTTG | 0.984 ± 0.016 |
| CAGGTCGCGG | 1.005 ± 0.006 |
| TGGGATATCT | 1 ± 0.023 |
| GGTTTTGCTT | 0.96 ± 0.034 |
| TCGATCGCAT | 2.51 ± 2.2 |
| AAATGATAAG | 0.998 ± 0.021 |
| TGGGACTTTT | 1.01 ± 0.053 |
| ACAGTATCGG | 1.06 ± 0.013 |
| ACGACCGGGT | 1.2 ± 0.037 |
| ATGGCATCGG | 1.005 ± 0.0035 |
| CAATATTATG | 1.02 ± 0.02 |

| Sequence | switch fluorescence ratio |
| --- | --- |
| GAAATCACTC | 1.15 ± 0.13 |
| AGCGTAGTCA | 0.9868 ± 0.0021 |
| CTCTGGGGTC | 1.05 ± 0.048 |
| GCGCGGGGGA | 1.02 ± 0.025 |
| CGGGAAGGGC | 1.19 ± 0.32 |
| CGGAAGCTCT | 1.036 ± 0.0028 |
| GTTGTGGTTT | 0.975 ± 0.034 |
| TGATTTTATT | 0.974 ± 0.011 |
| AGTTAATTTT | 1.0014 ± 0.0007 |
| CTAAGGGGCA | 1 ± 0.019 |
| TGGATTCCTA | 1.002 ± 0.01 |
| CGCGGGAGGG | 1.04 ± 0.022 |
| CACCTTACTC | 2.07 ± 0.11 |
| AAGTAGATGG | 0.991 ± 0.029 |
| TCGAATATTT | 1.02 ± 0.073 |
| ATCTTAGTTA | 0.999 ± 0.026 |
| AGCGATGCTT | 1.133 ± 0.011 |
| TAGTCTTTAG | 1.01 ± 0.0072 |
| ATTCTACCGC | 1.49 ± 0.08 |
| TGGAAGGATT | 1.01 ± 0.015 |
| ATTCATCGTA | 1.0012 ± 0.0006 |
| ATGGGGTTTC | 1.01 ± 0.051 |
| TAGGGGTCGG | 0.981 ± 0.048 |
| CGGAAGCATG | 1.13 ± 0.047 |
| CGAACGCCTG | 1.1 ± 0.036 |

| Sequence | switch fluorescence ratio |
| --- | --- |
| ACCGGATCGT | 0.9828 ± 0.0035 |
| TATGACGCAG | 0.993 ± 0.011 |
| GCGCCAGGCG | 0.998 ± 0.025 |
| TTGTTTATGT | 0.9993 ± 0.0082 |
| GGGCAAGTCA | 1.02 ± 0.014 |
| TGGAAGGAGC | 1.07 ± 0.049 |
| TCATTTGTGC | 1.01 ± 0.039 |
| AGGAATTTGG | 0.978 ± 0.024 |
| GATTTTTACT | 1.02 ± 0.024 |
| TTGGTTTATG | 0.993 ± 0.045 |
| ATGTTGTCGA | 1.01 ± 0.031 |
| TTCACGGTTG | 1.04 ± 0.061 |
| AGGAAATAGG | 0.963 ± 0.049 |
| CGGGGGAGAC | 0.971 ± 0.019 |
| TTGGTCCCGA | 1.001 ± 0.0014 |
| AGGGGGGATA | 1.02 ± 0.074 |
| TTACGTAGGC | 1.09 ± 0.012 |
| GGTGTAGGGG | 1.04 ± 0.074 |
| GTGGCATGGG | 1 ± 0.014 |
| CAGCGTTCAC | 1.054 ± 0.0092 |
| GCTACAGCAT | 1.06 ± 0.031 |
| TATGATTCGG | 0.992 ± 0.057 |
| GGGGTTAACT | 0.975 ± 0.022 |
| TGGGAAAACT | 1.07 ± 0.12 |
| CGAGCGGTTG | 0.999 ± 0.013 |

| Sequence | switch fluorescence ratio |
| --- | --- |
| TCATGAGCTT | 1.039 ± 0.0015 |
| TGGGATAGTG | 1 ± 0.046 |
| GGGATTAGAT | 0.982 ± 0.013 |
| GCGGGGCTCA | 1.12 ± 0.11 |
| GCTGTTCTTC | 0.985 ± 0.013 |
| GGAATGGGTA | 0.997 ± 0.027 |
| GGTTGGGACT | 0.994 ± 0.028 |
| AGTGGGGCGT | 1 ± 0.016 |
| CGATGATATT | 1.02 ± 0.053 |
| GGTATGGCGA | 0.939 ± 0.048 |
| TGAGTCTGCT | 0.998 ± 0.087 |
| TTAGCTGTAG | 1.09 ± 0.11 |
| GATATTTGA | 0.99448 ± 0.00073 |
| CGGCATGGAG | 0.996 ± 0.025 |
| TATGAAGCCG | 1.06 ± 0.044 |
| TTGGGGGCTT | 1 ± 0.039 |
| GTTTGTGC | 0.998 ± 0.059 |
| ATGGTAGGTA | 1 ± 0.031 |
| TAAGGAAGTT | 1.009 ± 0.0096 |
| TAAATTTGGG | 0.974 ± 0.017 |
| CGTTATACAG | 1.01 ± 0.026 |
| GGGGACTAGT | 0.957 ± 0.043 |
| CAGTGGGACT | 0.974 ± 0.024 |
| CGAATATACG | 1.04 ± 0.021 |
| TGCGACTGGT | 0.942 ± 0.024 |

| Sequence | switch fluorescence ratio |
| --- | --- |
| ATAGGTAGTC | 0.996 ± 0.02 |
| TTCTTCGTTA | 1.03 ± 0.019 |
| ATGCCGTGGC | 1.02 ± 0.033 |
| CTTCTTGGAG | 0.967 ± 0.026 |
| CGATAATGAA | 1 ± 0.029 |
| GTTTTGGAGC | 1.03 ± 0.067 |
| ATGTAGTGGC | 0.995 ± 0.049 |
| ATCGCTGGGT | 1.01 ± 0.019 |
| CGGGGATGGC | 0.979 ± 0.011 |
| TAGTCGGCGC | 1 ± 0.047 |
| CTTTATATCT | 0.993 ± 0.03 |
| GTCGGGGGTA | 0.992 ± 0.039 |
| TCACGCAGGG | 1.03 ± 0.023 |
| TGGGTTGGGT | 0.993 ± 0.022 |
| CGAAGGGGTA | 0.987 ± 0.018 |
| TCAGGGGGCC | 1.02 ± 0.077 |
| TGGTTCCCAG | 1.04 ± 0.031 |
| ATAATCAAGG | 1.01 ± 0.032 |
| TCGGGATAGC | 1.08 ± 0.052 |
| TTTAGGCTGG | 0.979 ± 0.022 |
| CATCGGGACG | 1.04 ± 0.053 |
| TAGTCATGCG | 1.04 ± 0.026 |
| TTCGGGTAAT | 1.08 ± 0.11 |
| ACCGGAGCGG | 1.61 ± 0.042 |
| TTTCGGGTTT | 0.989 ± 0.028 |

| Sequence | switch fluorescence ratio |
| --- | --- |
| TAGGGTGCGG | 1.03 ± 0.021 |
| AAGGGGGCGG | 1 ± 0.015 |
| AATGAGCGTT | 1.14 ± 0.16 |
| GCTTTTGCGG | 0.981 ± 0.045 |
| TCCCGGTCCG | 1 ± 0.027 |
| TCTGAGTTTG | 0.993 ± 0.038 |
| AATACTTGGG | 0.966 ± 0.01 |
| TAAGTTGTTT | 0.996 ± 0.013 |
| AGGGTTGGG | 1.03 ± 0.029 |
| GATGGTGGTT | 1.02 ± 0.044 |
| AAACTGGGGT | 0.999 ± 0.0016 |
| TTGGAGGTTC | 0.99 ± 0.063 |
| CAGATGTTTT | 0.987 ± 0.052 |
| GTATGCGGGG | 0.996 ± 0.02 |
| CAAAGAACTT | 1.01 ± 0.018 |
| CCTGGCTTTT | 1.047 ± 0.007 |
| GGGACAAGAT | 0.999 ± 0.026 |
| TCGTTCAATC | 1.314 ± 0.01 |
| ATTTAGTGGG | 0.993 ± 0.048 |
| CCGGGTGTTT | 1.63 ± 0.75 |
| ATTGATTGAA | 1.01 ± 0.012 |
| GTTCACTTTT | 1.02 ± 0.036 |
| TTATTCCCGT | 0.985 ± 0.064 |
| TTCAAGGGCA | 1.01 ± 0.027 |
| GGGGGAGAAT | 0.986 ± 0.025 |
